In patent publication US20250283886:

What was measured:
[1] = biological target: T1, KKMKKM{LYS(N3)} peptide-linker conjugate, oligo linker (Table 6 entry 2)
T1 chain: KKMKKMX

[2] = biological target: T2, KKMKKM{LYS(N3)} peptide-linker conjugate, oligo-PEG linker (Table 6 entry 3)
T2 chain: KKMKKMX

[3] = biological target: T3, FFMFFM{LYS(N3)} peptide-linker conjugate, oligo linker (Table 6 entry 6)
T3 chain: FFMFFMX

[4] = biological target: T4, KKMKKM{LYS(N3)} peptide-linker conjugate, PEG4 linker (Table 6 entry 4)
T4 chain: KKMKKMX

[5] = biological target: […]{LYS(N3)} peptide-linker conjugate, oligo linker (Table 6 entry 5)
[6] = biological target: KF peptide-linker conjugate, oligo linker (Table 6 entry 1)
[7] = biological target: […]{LYS(N3)} peptide-linker conjugate, oligo linker (Table 6 entry 7)
[8] = biological target: T5, FYPLPWPDDDY{LYSN3}NH2
T5 chain: FYPLPWPDDDYX

[9] = biological target: T6, WAAAFPDDDF1
T6 chain: WAAAFPDDDF

[10] = biological target: T7, FAAAWPDDDF1
T7 chain: FAAAWPDDDF

[11] = biological target: T8, FAAAYPDDDF1
T8 chain: FAAAYPDDDF

B1: rat aminopeptidase N (protein)
chain: KPWNQYRLPKTLIPDSYQVTLRPYLTPNEQGLYIFKGSSTVRFTCNETTNVIIIHSKKLNYTNKGNHRVALRALGDTPAPNIDTTELVERTEYLVVHLQGSLVKGHQYEMDSEFQGELADDLAGFYRSEYMEGGNKKVVATTQMQAADARKSFPCFDEPAMKASFNITLIHPNNLTALSNMLPKDSRTLQEDPSWNVTEFHPTPKMSTYLLAYIVSEFKYVEAVSPNRVQIRIWARPSAIDEGHGDYALQVTGPILNFFAQHYNTAYPLEKSDQIALPDFNAGAMENWGLVTYRESALVFDPQSSSISNKERVVTVIAHELAHQWFGNLVTVDWWNDLWLNEGFASYVEFLGADYAEPTWNLKDLIVLNDVYRVMAVDALASSHPLSSPANEVNTPAQISELFDSITYSKGASVLRMLSSFLTEDLFKKGLSSYLHTFQYSNTIYLDLWEHLQQAVDSQTAIKLPASVSTIMDRWILQMGFPVITVNTSTGEIYQEHFLLDPTSKPTRPSDFNYLWIVPIPYLKNGKEDHYWLETEKNQSAEFQTSSNEWLLLNINVTGYYQVNYDENNWRKIQNQLQTDLSVIPVINRAQIIHDSFNLASAGKLSITLPLSNTLFLASETEYMPWEAALSSLNYFKLMFDRSEVYGPMKRYLKKQVTPLFAYFKIKTNNWLDRPPTLMEQYNEINAISTACSSGLEECRDLVVGLYSQWMNNSDNNPIHPNLRSTVYCNAIAFGGEEEWNFAWEQFRKATLVNEADKLRSALACSNEVWILNRYLSYTLNPDYIRKQDATSTIVSIANNVVGQTLVWDFVRSNWKKLFEDYGGGSFSFANLIQGVTRRFSSEFELQQLEQFKEDNSATGFGSGTRALEQALEKTKANIKWVKENKDVVLKWFTENS
- Cleaved by Rat APN [1]: No
- Cleaved by Rat APN [2]: No
- Cleaved by Rat APN [3]: Yes
- Cleaved by Rat APN [4]: Yes
- Cleaved by Rat APN [5]: Yes
- Cleaved by Rat APN [6]: No
- Cleaved by Rat APN [7]: Yes

B2: Vibrio proteolyticus aminopeptidase (protein)
chain: MPPITQQATVTAWLPQVDASQITGTISSLESFTNRFYTTTSGAQASDWIASEWQALSASLPNASVKQVSHSGYNQKSVVMTITGSEAPDEWIVIGGHLDSTIGSHTNEQSVAPGADDDASGIAAVTEVIRVLSENNFQPKRSIAFMAYAAEEVGLRGSQDLANQYKSEGKNVVSALQLDMTNYKGSAQDVVFITDYTDSNFTQYLTQLMDEYLPSLTYGFDTCGYACSDHASWHNAGYPAAMPFESKFNDYNPRIHTTQDTLANSDPTGSHAKKFTQLGLAYAIEMGSATGDTPTPGNQ
- HPLC Assay Conv; 200 uM Peptide, 8 uM enzyme, MOPS pH 5.0, RT/0.5 hr [8]: 100%
- HPLC Assay Conv; 200 uM Peptide, 8 uM enzyme, MOPS pH 5.0, RT/1 hr [8]: 100%
- HPLC Assay Conv; 600 uM Peptide, 0.8 uM enzyme, pH 5.5, RT/0.5 hr [8]: 100%
- HPLC Assay Conv; 600 uM Peptide, 0.8 uM enzyme, pH 6.5, RT/0.5 hr [8]: 100%
- HPLC Assay Conv; 600 uM Peptide, 0.8 uM enzyme, pH 7.5, RT/0.5 hr [8]: 100%
- HPLC Assay Conv; 600 uM Peptide, 0.8 uM enzyme, pH 8.5, RT/0.5 hr [8]: 100%
- HPLC Assay Conv; 1200 uM Peptide, 800 pM enzyme, pH 7.5, RT/0.5 hr [8]: 2.70%
- HPLC Assay Conv; 1200 uM Peptide, 800 pM enzyme, pH 8.5, RT/0.5 hr [8]: 6.80%
- HPLC Assay Conv; 1200 uM Peptide, 0.008 uM enzyme, pH 5.5, RT/0.5 hr [8]: 1.40%
- HPLC Assay Conv; 1200 uM Peptide, 0.008 uM enzyme, pH 6.5, RT/0.5 hr [8]: 56%
- HPLC Assay Conv; 1200 uM Peptide, 0.008 uM enzyme, pH 7.5, RT/0.5 hr [8]: 100%
- HPLC Assay Conv; 1200 uM Peptide, 0.008 uM enzyme, pH 8.5, RT/0.5 hr [8]: 100%
- HPLC Assay Conv; 1200 uM Peptide, 0.08 uM enzyme, pH 5.5, RT/0.5 hr [8]: 50%
- HPLC Assay Conv; 1200 uM Peptide, 0.08 uM enzyme, pH 6.5, RT/0.5 hr [8]: 100%
- HPLC Assay Conv; 1200 uM Peptide, 0.08 uM enzyme, pH 7.5, RT/0.5 hr [8]: 100%
- HPLC Assay Conv; 1200 uM Peptide, 0.08 uM enzyme, pH 8.5, RT/0.5 hr [8]: 100%
- HPLC Assay Conv; 300 uM Peptide, 8 uM enzyme, 50/50 MOPS Mg buffer/RB1, RT/0.5 hr [9]: 30%
- HPLC Assay Conv; 300 uM Peptide, 8 uM enzyme, RB2 + Mg, RT/0.5 hr [9]: 5%
- HPLC Assay Conv; 300 uM Peptide, 8 uM enzyme, RB4, RT/0.5 hr [9]: 100%
- HPLC Assay Conv; 300 uM Peptide, 8 uM enzyme, pH 8, 60 mM KOAc, RT/0.5 hr [9]: 70%
- HPLC Assay Conv; 300 uM Peptide, 8 uM enzyme, pH 8, 60 mM KOAc, RT/2 hr [9]: 100%
- HPLC Assay Conv; 300 uM Peptide, 8 uM enzyme, pH 8, 0.2% Tween20, RT/0.5 hr [9]: 100%
- HPLC Assay Conv; 300 uM Peptide, 8 uM enzyme, pH 8, RT/0.5 hr [9]: 100%
- HPLC Assay Conv; 600 uM Peptide, 8 uM enzyme, pH 8, RT/0.5 hr [9]: 100%
- HPLC Assay Conv; 600 uM Peptide, 8 uM enzyme, pH 8, RT/0.5 hr [10]: 100%
- HPLC Assay Conv; 600 uM Peptide, 0.08 uM enzyme, RT/0.5 hr [11]: 5%
- HPLC Assay Conv; 600 uM Peptide, 0.8 uM enzyme, RT/0.5 hr [11]: 50%
- HPLC Assay Conv; 600 uM Peptide, 8 uM enzyme, RT/0.5 hr [11]: 100%
